{"source": "the DeepSol protein solubility set"}
{"assay": "soluble on expression in E. coli; label from the status in PepcDB or PDB records"}
{"sequence": "MATKTKTTEAPVLPLNQILAGDCIETMRSLPECSVDLIFADPPYNLQLRGDLHRPDNSRVDAVDDHWDQFSSFSVYDQFTREWLAAARRLLKPNGAIWVIGSYHNIFRVGAALQDQGFWILNDVVWRKSNPMPNFKGKRLTNAHETLIWASKQEASKYTFNYEALKALNEGVQMRSDWVIPICTGHERLKDEQGDKAHPTQKPEALLHRVMVATTNPGDVVLDPFFGTGTTGAVAKMLGRDFIGIEREESYRRIAAERLSRVRRYDASALEVSGSKRAEPRVPFGQLVERGMLRPGEELYSMNNRHKAKVRADGTLIGNDVKGSIHQVGAALEGAPSCNGWTYWCYKREGKMIPIDILRQQIRAEMEDPRPN", "soluble on expression in E. coli": "not soluble"}
{"sequence": "MATLFIADLHLQTEEPAIVAGFLRFLAVEARQADALYILGDLFEAWIGDDDPNPLHREMAVAIKSLVDSGVPCFFIHGNRDFLIGKRFARESGMILLPQEKVLDLYGRNVLIMHGDTLCTDDAGYQAFRAKVHNPWVQRLFLTLPLFIRRRIAARMRAGSKAANSSKSLDIMDVNAQTVVAEMEKHRVQWLIHGHTHRPAVHELSANDQPAFRVVLGAWHHEGSMVKVTPDNVELIAFPLLEHHHHHH", "soluble on expression in E. coli": "not soluble"}
{"sequence": "MATLRIGLVSISDRASSGVYQDKGIPALEEWLTSALTTPFELETRLIPDEQAIIEQTLCELVDEMSCHLVLTTGGTGPARRDVTPDATLAVADREMPGFGEQMRQISLHFVPTAILSRQVGVIRKQALILNLPGQPKSIKETLEGVKDAEGNVVVHGIFASVPYCIQLLEGPYVETAPEVVAAFRPKSARRDVSE", "soluble on expression in E. coli": "soluble"}
{"sequence": "MATMTTKSHCTFNPDYYQDVWQRFGEEEYDVVVIGGGSVGAGAGLDAAIRGLKVAVVESRDFAAGTSSRSSKMFHGGLRYLAMLDFKLVAESLHERELNMSTLAPHLVKPLKFLFPLTHHVWERVMMFGGFTLYDLMGGAKSVPMQKHYSRKGTLAMAPGLKDDAVVGSVRYFDTLVDDARHTMTVLRTAGELGADVRPSTQVVGFEKDGQRVVGAILQDTDTGEQTTIRGKVFINATGVWNDHIEKLAGGNGPFSVHASKGVHIVVPKNVFDADAAMCFVTEKSVLFVIPWGEYWIIGTTDTDWDLNRADPAPTAADINYILDEVNQRVRRPIQHSDIVGVYSGLRPLLSGKSDTTTKLSRNHAVAKVMPGLVSVAGGKYTTYRVIGKDAVDLATEDLDFRVPASESERTPILGADGYHALQNQAPRIARTFGTTEDVVEHLLGRYGSLVHEVLEPSVDKPELLEPIPGAPGYIKAEAVYAVTHEGALHVEDIVERRLRAGIEYADRGVAAAPAIAELVADYLGWDAERTAAEVTAFTDRVSAEIAAEKELTDKAANEHIVAGSAVRSYVDVSGDNLEHHHHHH", "soluble on expression in E. coli": "soluble"}
{"sequence": "MATQTAVTATTVPQGSPSVTGSASQGGILNSARQFFSLAAPKVEKDKEFSFRFLTSPLRSKPAATVNADNFYMYACGSINMP", "soluble on expression in E. coli": "not soluble"}
{"sequence": "MATVGGAFKDSLTQAQKDELHQIALKIVQDGKGILAADESTGTIGKRLDAINLENNETNRQKYRQLLFTTPNLNQHISGVILYEETFHQSTDKGEKFTDLLIKQGIVPGIKLDLGVVPLAGTIGEGTTQGLDKLAERAAAFKKGGCGFAKWRCVLNIGTHTPSHLGMLENANVLARYASICQANGLVPIVEPEVLCDGEHDLARAQKVTEQVLAFVYKALADHHVYLEGTLLKPNMVTPGQSSASKASHEAIGLATVTALRRGVPAAVPGITFLSGGQSELDATANLNAINSVQLGKPWKLTFSYGRALQASVLKAWGGKDENIAAAQKTLLHRSKANGDASLGKYAGEDAAGAAAESLFVAKHSY", "soluble on expression in E. coli": "not soluble"}
{"sequence": "MAVENITMPQLGESVTEGTISKWLVNVGDHVNKYDPLAEVMTDKVNAEVPSSFTGIVKELIAGEGDTLAVGEVVCVIQVEGADEVAATAVEEKTKEEPKAEVNTPEKAPKAKQPTDGKPRFSPAVLKLAGEHNVDLDLVEGTGANGRITRKDILKLVESGNIPQAGAVKKEEAVAAVVEARPEAPKAAPVAQKVEAAKPVSVPTMPGDIEIPVTGVRKAIAANMLRSKHEAPHAWMMIEVDVTNLVSYRNSIKGDFKKREGFNLTFFAFFVKAVAQALKEYPQINSMWAGDKIVQKKDINLSIAVATEDELFVPVIKHADEKTIKGIAREITELAGKVRTKSLKADEMQGGTFTINNTGSFGSVQSMGIINYPQAAILQVESIVKRPVIMENGMFGARDMVNLCLSLDHRVLDGLICGKFLGRVKEILENTSENNTSVY", "soluble on expression in E. coli": "not soluble"}
{"sequence": "MAVGGGIGGLLLVGLFLLLGGNPAEIDQVLGGDQTQIESGESTGAGDFDHCQTGADANASDDCRLYYTSFSVNEMWQTLLPAQAGIEYTEPTLTLFKNSTQTGCGFASASTGPFYCPSDQDAYFDLTFFDQMRQFGAENAPLAQMYIVAHEYGHHVQNLEGTLGLSNYNDPGADSNAVKIELQADCYAGIWANHSSEGPDPLLQPITESELDSALLAASAVGDDNIQQRSGGDVNPESWTHGSSQQRKDAFLAGYNTGQMSACDFLGRGVYNDA", "soluble on expression in E. coli": "not soluble"}
{"sequence": "MAVKINDLTLPKEKLENEYQVVQVSLWQKDGEALGWTYECVLPKLRFEKISVKVKSEAPVITKETLDEKGMAIVRFDNLMITPWGRVNGQFVSYGLTATAYKATLVPNK", "soluble on expression in E. coli": "not soluble"}
{"sequence": "MAVRFASLGSGSDGNALLVESTDGTTSTRILLDCGFGIRETVRRLERLGCAPASLDAILVTHEHGDHIGSAYAFAAKYSVPVWTSHGTYRATASLRGADRAAVRFCRADDAFSIGDLRILPYTVPHDAREPLQFIFDDGARRLGVLTDAGMSTEYLCGHLTGLHAFVLECNHDREMLANSAYPWSLKQRIGGDFGHLANDIAAAILARVRHDGLHTVVAAHLSKQNNTPELAAAAIASALGVPAGDVPIADQEAGLGWQAVLEHHHHHH", "soluble on expression in E. coli": "not soluble"}
{"sequence": "MAVSATGFEGFEKRLEISFFETTDFLDPQGKSLRSLTKSQLDEILTPAECTIVSSLTNSFVDSYVLSESSLFVYPYKIIIKTCGTTKLLLSIPHILRLADSLCLTVKSVRYTRGSFIFPGAQSYPHRSFSEEVALLDDYFGKLNAGSKAFVMGGSDNNPQRWHVYSASSTEESAVCDKPVYTLEMCMTGLDNIKASVFFKTNSVSASEMTISSGIRNILPGSEICDFNFEPCGYSMNSIEGDAVSTIHVTPEDGFSYASFETVGYDLKALNFKELVDRVLVCFGPEEFSVAVHANLGTEVLASDCVADVNGYFSQERELEELGLGGSVLYQRFVKTVECCSPKSTLGFC", "soluble on expression in E. coli": "not soluble"}
{"sequence": "MAWGQIAVVSPLVNIPVNTIEQSLLRQLPGCWGCKDKDSVFRYVNQEYAELLGHASPEECIGKTDFEMSSPTTECAQEFQRQDKHVIETGESLKILDIHPYPDGRWRAHIFTKTPWRDEQGNTLGTIFYGRELTDTAVIEVGYWVCRAIGTDMNHQSIFRFSNLNPKPEKLTCREQETLFLLLYGKKPQFISQVMGISTKTVEGHVARLRNKFEANSKNELIDKAMEAGYGSVVPKTLLKHQLSVVLNGER", "soluble on expression in E. coli": "not soluble"}
{"sequence": "MAYQRIRQPKLSDVIEQELERLIVEGTLSPGQQLPPERELAKQFEVSRPSIREAIQRLEAKRLLTRRQGGGTFVSDRIWQSFSDPLLNLLSSHSETQLDLLEARHALEGICAYFAALRGTEEDFARIQHCVTRIAEAQALNNVDEEAERVMAFLIAITEAAHNVVLLHIVRSLSPLLEQNIRQNFKLLHRRPEAVEKVSKHRANIVDAIVSGQPEKAREMSHSHLAYIEETLLDLTREQTRRERSLRRIQQGNEPQ", "soluble on expression in E. coli": "soluble"}
{"sequence": "MAYQVTTFYHFTRLNCLAEKQSRWQELGDRLGLKGTILLAEEGVNATIAGESAAIEEMVKIMAADLGLTSVPQRHSWAKTIPFQRMKVKIKPEIVSLGQPQVNPEKQVGTYVSPQQWNQLLQDPDVVVIDTRNDYEVAIGTFQGAVNPCTKKFRQFPDYVKNNLDQQKNKKVAMFCTGGIRCEKASAYLLEEGFAEVYHLRGGILHYLETIAPEESLWQGECFVFDERVAVQEGLKVGSHALCDHCGYPLRVGDLAEIRYAVRHCPQCGLTVAVSNELLEHHHHHH", "soluble on expression in E. coli": "soluble"}
{"sequence": "MAYWLVKSEPSVWSWDQQVAKGAAGEAWTGVRNHSAKLHMVAMRRGDRAFYYHSNEGKEIVGIAEIIREAYPDPTDASGKFVCVDIKADKPLKTPVTLAAVKAEPRLADMALMKYSRLSVQPVTAEEWKLVCKMGGLLEHHHHHH", "soluble on expression in E. coli": "not soluble"}
{"sequence": "MCAHEGKQYKNDTTFISQGSFRMKCVTFKNLTSTLEVISCITPAGVEISIGTQLEEGDKVFECTPGNVTLKSTPGQTGKCRGVYSVGDTWVEDSFRLLCEPYGKVNLKSCISKEGVEIPLGEARRVPAGYAMECVTVNGNVALQTAKTFDCETGTGEIKKFGDTWNEGNFVRRCANYGVSAIIGCYADGVGSIGLNQNMTSGDFLYMCINQNEQFKFRTLKAT", "soluble on expression in E. coli": "not soluble"}
{"sequence": "MCEATYGGASPQIRRQRFVILGMSDDPHPFFPPAAMTAIASGKIFSGGKRHHEIVRGLLPADAEWIDITVPLDDVFARYREYEEIVVFASGDPLFFGFANTVMNRLPDAVVTVYPTFNSLQMLAHALRMPYHDMRIVSLTGRPWHEFDRALIERAEKIGILTDHEHTPSAIAMRMLDYGYEDYTMSVGTRMGNPQEQCLDTFSLREAADRDFERPNCVILSATRPFVCSRAPLGLSESAFMPLNGRTKMITKMPFRLVSLSCLELHRASSFWDIGFCTGSVSIEAKLNFPHLHITAFEIRPEGAELMPVNSRRFGAPGIAYRIGDFMEEDISSLAPPDAVFIGGHGGRLVEMIAKVHSVMTKGGLLVFNSVSEESRHLFLTGIEACGMELLSSIRLTADGNNPIDILQARKKE", "soluble on expression in E. coli": "not soluble"}
{"sequence": "MCFSFIMPPAMADILDIWAVDSQIASDGSIPVDFLLPTGIYIQLEVPREATISYIKQMLWKQVHNYPMFNLLMDIDSYMFACVNQTAVYEELEDETRRLCDVRPFLPVLKLVTRSCDPGEKLDSKIGVLIGKGLHEFDSLKDPEVNEFRRKMRKFSEEKILSLVGLSWMDWLKQTYPPEHEPSIPENLEDKLYGGKLIVAVHFENCQDVFSFQVSPNMNPIKVNELAIQKRLTIHGKEDEVSPYDYVLQVSGRVEYVFGDHPLIQFQYIRNCVMNRALPHFILVECCKIKKMYEQEMIAIEAAINRNSSNLPLPLPPKKTRIISHVWENNNPFQIVLVKGNKLNTEETVKVHVRAGLFHGTELLCKTIVSSEVSGKNDHIWNEPLEFDINICDLPRMARLCFAVYAVLDKVKTKKSTKTINPSKYQTIRKAGKVHYPVAWVNTMVFDFKGQLRTGDIILHSWSSFPDELEEMLNPMGTVQTNPYTENATALHVKFPENKKQPYYYPPFDKIIEKAAEIASSDSANVSSRGGKKFLPVLKEILDRDPLSQLCENEMDLIWTLRQDCREIFPQSLPKLLLSIKWNKLEDVAQLQALLQIWPKLPPREALELLDFNYPDQYVREYAVGCLRQMSDEELSQYLLQLVQVLKYEPFLDCALSRFLLERALGNRRIGQFLFWHLRSEVHIPAVSVQFGVILEAYCRGSVGHMKVLSKQVEALNKLKTLNSLIKLNAVKLNRAKGKEAMHTCLKQSAYREALSDLQSPLNPCVILSELYVEKCKYMDSKMKPLWLVYNNKVFGEDSVGVIFKNGDDLRQDMLTLQMLRLMDLLWKEAGLDLRMLPYGCLATGDRSGLIEVVSTSETIADIQLNSSNVAAAAAFNKDALLNWLKEYNSGDDLDRAIEEFTLSCAGYCVASYVLGIGDRHSDNIMVKKTGQLFHIDFGHILGNFKSKFGIKRERVPFILTYDFIHVIQQGKTGNTEKFGRFRQCCEDAYLILRRHGNLFITLFALMLTAGLPELTSVKDIQYLKDSLALGKSEEEALKQFKQKFDEALRESWTTKVNWMAHTVRKDYRS", "soluble on expression in E. coli": "soluble"}
{"sequence": "MCGRFTLTVDLLALQDRFHFRYQGSLTPRFNIAPGQDVLTIVAEGGERVGKMMRWGLVPFWAKDARIGAKMINARAETVDEKASFRHAFKRRRCLILADGFFEWKKEGTKKVPYRFTLKTGEPFAFAGLWERWEGASDPIETCTIMTTKANELIAPIHDRMPVMLPYERHDDWLDPRLDDSEYLKSLLSPYPSGEMRMYEVAPLVNSPKNDVIACIEPVDSRSMEGT", "soluble on expression in E. coli": "not soluble"}
